The test system of this data set is KLF6-CDK200 RTF 8 phosphate-contact mutant 8 phosphate-contacting Arg to Gln (Homo sapiens). Description: cell_activity. To be noted: on-target activity reduced 12%; only CDKN1C upregulated in RNA-seq.

For the sequence “TTGAAACTGAAAATACTACATTATGCTA (double strand) [CDKN1C target 200]”, the binding signal (% of unmodified CDK200) was 88.

For the origin of these results see patent US20240092844.
